In patent US20190338026A1 (University of Texas, published 2019):

T1: LAIR1 on LAIR1 reporter cells (human, UniProt Q6GTX8 22-165, limits assumed)
T1 chain: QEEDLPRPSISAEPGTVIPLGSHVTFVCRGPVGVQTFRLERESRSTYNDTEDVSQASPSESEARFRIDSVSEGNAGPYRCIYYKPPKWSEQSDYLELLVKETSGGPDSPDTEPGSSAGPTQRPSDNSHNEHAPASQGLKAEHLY

T2: human LAIR1 extracellular domain (ECD) protein with 6 HIS tag at the C-terminus (human, UniProt Q6GTX8 22-165)
T2 construct: Produced recombinantly in HEK293 cells; the whole entry is named here; also called LAIR1 ECD; LAIR1-ECD
T2 chain: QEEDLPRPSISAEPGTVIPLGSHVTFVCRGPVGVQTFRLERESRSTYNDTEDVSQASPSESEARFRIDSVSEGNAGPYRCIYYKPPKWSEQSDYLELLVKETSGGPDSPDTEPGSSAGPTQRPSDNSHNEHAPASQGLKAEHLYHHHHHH

B1: LA-252 (antibody, V domains shown)
VH: EQSVEESGGRLVTPGTPLTLTCTASGFTISDYHMCWVRQAPGKGLEWIGLIRASHSTAYASWANGRFTISRTSTTVDLKITSPTSEDTATYFCARYGGSGIGCNLWGPGTLVTISS
VL: ELVLTQTPASVSEPVGGTVTIKCQASQSIDSNLAWYQQKPGQPPKQLIYAVSNLASGVPSRFKGSGSGTEFTLTISDLECADAASYYCECTYYGNSYVGGFGGGTEVEIK
notes: Rabbit monoclonal IgG; Called a potential antagonist antibody
B2: LA-30 (antibody, V domains shown)
VH: EQSVESGGGLVQPEGSLTLTCKASGFDFSRNAICWVRQAPGKGPEWIACYSFSSSATYYASWAKSRFTISKTSSTTVTLQMTSLTAADTATYFCARVDIYGGSRYWGMWGPGTLVTISS
VL: ELVMTQTPASVEAAVGGTVTIKCQASQNIGGDLAWYQQKPGQPPKLLIYRASTLESGVPSRFSGSGSGTEFTLTISDLECADAATYYCQDTDIGSGAFGGGTELEIK
notes: Rabbit monoclonal IgG; also called mAb LA-30
B3: LA-35 (antibody, V domains shown)
VH: EQSVKESGGRLVTPGTPLTLTCTVSGIDLSYYSMGWFRQAPGKGLEWIGVISSSDSTYYANWAKGRFTISKTSTTVDLKIAGPTTEDTATYFCARVLANSYNAFNLWGPGSLVTISS
VL: ELDLTQTPASVSEPVGGTVTIKCQASQSVGSRLAWYQQKPGQPPKLLIYKASTLASGVPSRFKGSGSGTQFTLTMSDLECADAATYYCQCTNISSAYLGAFGGGTEVEIK
notes: Rabbit monoclonal IgG; also called mAb LA-35
B4: LA-37 (antibody, V domains shown)
VH: EQSLEESGGDLVKPGASLTLTCKASGFSFSSSEFMCWVRQAPGKGLEWIACIYGGLSDDTYFASWAKGRFTISKTSSITVTLQMTSLTAADTATYFCARSCDVNYYGFDPWGPGTLVTISS
VL: ELVLTQTPAPVSAAVGDTVTIKCQASQNKGTNLAWYQQKPGQPPKLLIYLSSTLASGVPPRFKGSRSGTEYTLTISDLECADAATYFCQSTYYGSNGLTFGGGTEVEIK
notes: Rabbit monoclonal IgG; also called mAb LA-37
B5: LA-63 (antibody, V domains shown)
VH: EQSVEESGGRLVAPGGSLTLTCTVSGFSLSSYAMSWVRQAPGKGLEWIGVMYNSGSAYYASWAKGRFTISRTSTTVDLKVTSLTTEDTATYFCGRGGSNSAWGDDLWGPGTLVTVSS
VL: ELDMTQTPASVSEPVGGTVTIKCQASQSISIRYFSWYQQKPGQPPKLLIYGASTLASGVPSRFKGSGSGTDFTLTISDLECADAATYYCQDSNYNSNYFGAFGGGTEVVVK
notes: Rabbit monoclonal IgG; also called mAb LA-63
B6: LA-64 (antibody, V domains shown)
VH: EQSLESGGGLITPGGTLTLTCTASGFTVTRYYMNWVRQAPGKGLEWIGYIYASSKTYYANWAKGRFTISKTSTTVDLKMTSLTAEDTGTYFCARGGVGNSGLNLDLWGPGTLVTISS
VL: ELVLTQTPASVSEPVGGTVTIKCQASQSIGSWLAWYQQKPGQPPKLLIYQASRLASGVSSRFGGSGSGTEFTLTISDLECADAATYYCQQAEYSGDVENTFGGGTEVVVK
notes: Rabbit monoclonal IgG; also called mAb LA-64
B7: LA-87 (antibody, V domains shown)
VH: QSVKESGGRLVTPGGSLTLTCTVSGFSLSNYNIQWVRQAPGKGLEWIGFISPAGNGYYASWAKGRFTISKASSTTVELKMTSLTASDTATYFCARHWDLWGPGTLVTISS
VL: ELVLTQTASSVSAAVGGTVTISCQSSQSVYSNYLSWFQQKPGQPPKELVYWTSTLQSGVPSRFSGSGSGTQFTLTISDLECDDAATYYCLGGYSGWFYAFGGGTEVVVK
notes: Rabbit monoclonal IgG; also called mAb LA-87
B8: LA-95 (antibody, V domains shown)
VH: EQSLKESGGRLVTPGGSLTLTCTASGFDINNYNIQWVRQAPGKGLEWIGFISPAGNEYSATWAKGRFTIYKTSSTTVELKMTSLTASDTATYFCARHWDSWGPGTLVTISS
VL: ELVMTQTESPVSAAVGGTVTISCQSSQSVYSNRLSWFQQKPGQPPKELVYWTSTLQSGVPSRFSGSGSGTQFTLTISDLECDDAATYYCLGGYSGNIYVFGGGTEVEIK
notes: Rabbit monoclonal IgG; also called mAb LA-95
B9: LA-151 (antibody, V domains shown)
VH: SSSVEESGGRLVTPGTPLTLTCTVSGFSLGSYAMGWVRQGPGKGLEWIGAVYGTTGYIYFATWAKGRFTISKTSTTVDLKITSPTTEDTATYFCARGYLTDSIANGFGVWGPGTLVTVSS
VL: ELDLTQTPASVSEPVGGTVTIKCQASQTITNRYLAWYQQKPGQPPKLLIYQSSKLASGVSSRFKGSGSGTDFTLTISDLECADAATYYCQCTDYGSTYLGTFGGGTEVEIK
notes: Rabbit monoclonal IgG
B10: LA-155 (antibody, V domains shown)
VH: EQSLEESGGDLVKPEGSLTLTCTASGFSFNSNYWICWVRQTPGKGLEWIGCIYSGSSGDTYYASWAKGRFTISKTSSTTVTLQMTSLTAADTATYFCARGADYVYWSYGLWGPGTLVTISS
VL: ELVLTQTPASVSAAVGGTLTIKCQASETIGTNLAWYQQKPGQPPKLLIYLASYLASGVSSRFKGSRSGTEFTLTISDLDCDDAATYYCQSTHFGNGHTFGGGTEVVVK
notes: Rabbit monoclonal IgG
B11: LA-222 (antibody, V domains shown)
VH: EQSVEESGGDLVKPGASLTLTCTASGFSFTYWICWVRQAPGKGLEWIACIYAGSSGDTYYASWAKGRFTISKTSSTTVTLQMTSLTAADTATYFCARSPDYVAWGYDLWGPGTRVTVSS
VL: ELVLTQTPASVSAAVGGTVTINCQASQSIGTNLVWYQQKPGQPPKLLFYYASTLASGVPSRFRGSRSGTEYTLTISDLECADAATYYCQCIYYGGNYGHTFGGGTEVVVK
notes: Rabbit monoclonal IgG
B12: LA-101 (antibody, V domains shown)
VH: EQSVEESGGRLVTPGTPLTLTCTVSGFSLSSFHMCWVRQAPGKGLEYIGIIYPGGSTGYANWAKGRFTVSKASNTVDLKISSPTTEDTATYFCARVNYGDWINGMDLWGPGTLVTISS
VL: ELDMTQTPASVSEPVGGTVTIKCQASQSIGSNLAWYQQKPGQRPKLLIYKASTLASGVPSRFKGSGSGTDFTLTISDLECADAASYYCQQAYWSGNVDNVFGGGTEVEIK
notes: Rabbit monoclonal IgG
B13: LA-117 (antibody, V domains shown)
VH: QSVKESGGDLVKPGASLTLACTASGFSFSDGYYMCWVRQAPGKGLEWIGCIHSSSGSIYYASWAKGRFTISKTSSTMVTLQMSSLTAADTATYFCARDSESYGYNPCELWGPGTLVTISS
VL: ELDLTQTPASVSEAVGGTVTIKCQASQTISNYLAWYQQKPGQRPKLLIYAASSLASGVSSRFRGSRSGTEYTLTITDLECDDAATYYCQCTYYGTTYVGGAFGGGTELEIK
notes: Rabbit monoclonal IgG

Key:
[1] = biological target: T1, LAIR1 on LAIR1 reporter cells; test: cell-based or functional assay
[2] = biological target: T1, LAIR1 on LAIR1 reporter cells; test: cell-based or functional assay
[3] = biological target: T1, LAIR1 on LAIR1 reporter cells; test: cell-based or functional assay
[4] = biological target: T2, human LAIR1 extracellular domain (ECD) …; test: ELISA, LAIR1 ECD coated, mAb titrated, anti-rabbit HRP
Protocol: (§1) The inventors then used a concentration titration (0-10 μg/ml) by ELISA to determine the LAIR1 monoclonal antibody (mAbs) binding to human LAIR1 ECD. […] For FIGS. 2-39, X axis indicates the antibody concentrations and Y-axis is binding signals, measured as OD (450 nm). To perform the ELISA assay, LAIR1 ECD recombinant protein was coated on high absorption 96-well plates. Serial diluted (3-fold) LAIR1 mAb was added to the coated/blocked plates and detected using goat anti-rabbit F(ab′)2 conjugated HRP as secondary antibody. All assays were repeated 3 times and the titration curves were fitted using 4-parameter fitting curve using the GraphPad software for EC₅₀ estimation.
(§2) Serial dilutions of the LAIR1 monoclonal antibodies (IgGs or scFvs fragments), starting from […] and 3-fold titration down for 12 steps, were added to the 96-well plate for binding by incubating 45 minutes at 37° C. with a cover on the assay plate. Then the plates were washed with PBS containing Tween 20 (0.05% concentration) for 3 times and PBS one time. […] Detection was conducted by adding HRP substrate, TMB (ThermoFisher) for 10 minutes, and stopped by adding 50 μl/well of 2N H2504. The plates were read for absorbance at 450 nm using a plate reader (SpectraMax M4, Molecular Devices). Data were collected and graphed using a 4-parameter fitting curve with GrapPad Prism 7 software for EC₅₀ calculation.

[5] = biological target: T2, human LAIR1 extracellular domain (ECD) …; test: ELISA, LAIR1 ECD coated
Protocol: as §1, §2

Binder | GFP+ of LAIR1 reporter cells, Collagen I coated [1] | GFP+ of LAIR1 reporter cells, Collagen I coated + K562 [1] | GFP+% of LAIR1 reporter cells, collagen I coated, soluble Ab and K562 cells [2] | GFP+% of LAIR1 reporter cells, collagen I coated, soluble Ab [3] | EC50 [4] | EC50 (read off the curve) [5]
B1 | < 5% | < 5% | 0.698% | 0.679% | 50 pM | ~8 ng/mL
B2 |  |  | 1.94% | 1.51% | 70 pM | ~10 ng/mL
B3 |  |  | 1.13% | 1.1% | 80 pM | ~10 ng/mL
B4 |  |  | 1.08% | 0.86% | 50 pM | ~8 ng/mL
B5 |  |  | 1.31% | 2.42% | 234000 pM | 
B6 |  |  | 2.29% | 1.5% | 90 pM | ~10 ng/mL
B7 |  |  | 0.844% | 1.45% | 60 pM | ~10 ng/mL
B8 |  |  | 0.595% | 0.711% | 40 pM | ~7 ng/mL
B9 |  |  | 1.95% | 0.678% | 80 pM | ~10 ng/mL
B10 |  |  | 0.867% | 0.746% | 40 pM | ~7 ng/mL
B11 |  |  | 0.792% | 0.905% | 50 pM | ~7 ng/mL
B12 |  |  |  | 2.92% | 50 pM | ~8 ng/mL
B13 |  |  |  | 3.19% | 80 pM | ~10 ng/mL
